Measurements: the supplement of paper PMC12042874
± gives the uncertainty stated by the source.

test: amyloid nucleation score (Sup35N fusion, yeast selection) (log enrichment); library NNK3; higher = more nucleation; inactive = no reads after selection
Procedure, shortened: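 Yeast lacking psi expressed peptides of 20 random codons fused to Sup35N, received 100 μM copper sulfate for 24 hours, and were then grown for 7 days at 30°C on medium lacking adenine and uracil. Illumina sequencing of input and output plasmid inserts provided the reads. Nucleation scores are DiMSum log enrichments of output over input, centred on the mode of non-aggregating sequences. Any sequence with under 100 input reads was excluded.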

| Substance | amyloid nucleation score |
| --- | --- |
| FVCYNTFSSSACSLCNHLSH | 2.4 ± 0.053 |
| FVDLSGRSCRVPTEVWGFHS | inactive |
| FVEAANNSFCYESSNIT | inactive |
| FVFGN | inactive |
| FVFMTDGGVLNVLAWCISEA | inactive |
| FVGIIGWMIYVEGVY | inactive |
| FVGSLDFNGVSEGFVASHCI | inactive |
| FVHSLRVVIW | inactive |
| FVIELCMWVRLEDVKLCFID | inactive |
| FVILFVVFNYINALCDCNID | 0.377 ± 0.27 |
| FVIVGSGSQSPEYIWNVKYE | -0.049 ± 0.32 |
| FVIVSL | 1.6 ± 0.069 |
| FVKCSRMF | inactive |
| FVLGGFLNKN | -0.11 ± 1.4 |
| FVLIPSHRAW | inactive |
| FVMRYRVVYSDRCFELGWHA | -0.567 ± 0.76 |
| FVNISHMY | inactive |
| FVPCVWLGSGNCLCTDTMLW | 1.63 ± 0.11 |
| FVPRPISNSAGIP | inactive |
| FVSILLYYMPVNCLNRKTIN | inactive |
| FVTAAN | inactive |
| FVTQFVEN | inactive |
| FVYTHIWGVGLGKML | 0.632 ± 0.14 |
| FWFSTELVDDGAGQT | inactive |

| Substance | amyloid nucleation score |
| --- | --- |
| FWHILLEVRLAVWSQMRDMG | inactive |
| FWIVSVTYFNCLVDWGEGCM | 2.05 ± 0.091 |
| FWKFRGQTWYCFAGTDGISH | -0.002 ± 0.75 |
| FWNVLWATRLYFFSFYDITS | inactive |
| FWSHLTLTSSSFKFGTVSR | inactive |
| FWTVHLVT | inactive |
| FWVNVCVFMGRVW | inactive |
| FWWLEI | inactive |
| FYCGFAMGFILCCQNYTFVT | 2.63 ± 0.076 |
| FYCGIWAYVEDCC | 2.53 ± 0.057 |
| FYCIVFQYGSLDLARH | 2.69 ± 0.064 |
| FYCRSGVGKCYGWVTKVMRE | inactive |
| FYFGTG | inactive |
| FYGFGGISIRSGVVGIVDMK | inactive |
| FYISREALLSIASRTLRARQ | inactive |
| FYMDWTGHLQKFNP | inactive |
| FYNDWRVFRVGCSLGRDQSN | inactive |
| FYNFSTCVTRGWYVFMRC | inactive |
| FYPRMYTISQMLDAGQDDAA | inactive |
| FYQNLFRILMHNVHAVCPCY | inactive |
| FYWGACSIHLFKL | inactive |
| FYYSVHFLF | inactive |
| FYYTKDPRIGKNNYLCV | inactive |
| FYYYLCYDIVAISVLMNLPY | inactive |

| Substance | amyloid nucleation score |
| --- | --- |
| GADMKTRRSARGLMWTMGSS | inactive |
| GAHANM | inactive |
| GAKIPELSLLMVTPINARSF | inactive |
| GALMCPPRLVS | inactive |
| GASCLCWNYRDRLRTEVRYY | inactive |
| GATFVRILSRLIRLSFI | inactive |
| GCINKDDYKSDCWSFYKTE | inactive |
| GCIYK | inactive |
| GCLECL | inactive |
| GCLYVW | inactive |
| GCNDSSARLS | inactive |
| GCNNVH | inactive |
| GCSRHYKFS | inactive |
| GDERGLLMYVPG | inactive |
| GDITSEYV | inactive |
| GDMQMW | inactive |
| GDNSLTYMSAM | inactive |
| GEKCGRSRI | inactive |
| GFAISQAYALSTPFVCISAI | inactive |
| GFEDSSIT | inactive |
| GFFLLNSYSNCMFCKLHTGT | 1.97 ± 0.082 |
| GFGFP | inactive |
| GFGYCVWQESGNLRGCRWLW | 0.5 ± 0.39 |
| GFIMEYDEY | inactive |

| Substance | amyloid nucleation score |
| --- | --- |
| GFLMGSE | inactive |
| GFMLWTHKKLARPEATAV | inactive |
| GFVMMFNR | inactive |
| GFYWYTVFAVSLDDCLSKSS | inactive |
| GGCCAYCSLDLVWMFDDRSV | 2.16 ± 0.081 |
| GGFCKWRKCGVYKMTGHCPE | inactive |
| GGKLSRNI | inactive |
| GGKVSERRYVDLCRLPSVAP | inactive |
| GGLCLLAVLWKFLMSALVIR | inactive |
| GGLDFSSLSLMWYTQSSHKV | inactive |
| GGLEVMSLITT | inactive |
| GGLTSYDQ | inactive |
| GGNGKAWHVGTVIMCRKLRV | 2.5 ± 0.078 |
| GGPSYSLSLWLSKVSCLQGG | 0.63 ± 0.34 |
| GGRTM | inactive |
| GGSCLSNPVGKYGILWWMLS | inactive |
| GGTIFNGNWVSTLSHPQRRA | 0.47 ± 0.25 |
| GGVTYRQDLTRYLSG | inactive |
| GHGLGAAYCRIVLKRETLTN | inactive |
| GHIYCYSVKE | inactive |
| GHSEYLA | inactive |
| GHTANLTYALFMGDFSRAGI | inactive |
| GHVSHYVVVLHLTSIGSCGL | 0.696 ± 0.23 |
| GHWSEKSDGTNKSYVVRSGM | inactive |

| Substance | amyloid nucleation score |
| --- | --- |
| GIAGCKSRSCLLPYCNWVSV | inactive |
| GIANRAFITDGGWGLFISTY | inactive |
| GICHTFDAGTVFFLFGSWFI | inactive |
| GIGIFSCLKSSVLCLIYLSR | -0.113 ± 0.31 |
| GIHHFF | inactive |
| GIIHDVMDTTNGKIVSS | inactive |
| GIKVLTTCGHKKFVGINSVM | inactive |
| GILFNK | inactive |
| GIRCSLVY | inactive |
| GIRLIECS | inactive |
| GKFVRLPPISRISHLWNCEL | inactive |
| GKPWCNYSDYFYCTLLVDCK | -0.246 ± 0.82 |
| GKQIRSNR | inactive |
| GKVVVN | inactive |
| GLCWRMLTFLWSFVSMENNG | -0.565 ± 1.1 |
| GLFCPVYS | inactive |
| GLFMRFTRWCRGKHVTMVP | inactive |
| GLFRGYGVTLVRRLWSRIMY | inactive |
| GLGYFPIWASLRTKLVLILG | inactive |
| GLHLIFFSYHRWHVTLK | inactive |
| GLLANWYVQH | inactive |
| GLLSPRTGCD | inactive |
| GLMRDCTTAMIGENDAFWSD | inactive |
| GLPSFRHSF | inactive |

| Substance | amyloid nucleation score |
| --- | --- |
| GLRFPMRWDCGVRVNYRKSR | inactive |
| GLRLFYAHRYAC | inactive |
| GLRNHCPSFLLWASTARGTL | -0.976 ± 2.5 |
| GLSRCSPWKASSDDRRRLSD | inactive |
| GLTTLCSVPKQYVKYFVVTH | inactive |
| GLVVKSKYMRRFPGTR | inactive |
| GMCVGDLEAQTSEGTSNESW | inactive |
| GMFCNGINTNYVPVYYYRSV | 1.27 ± 0.17 |
| GMMICMISWWVWNFACVDIR | inactive |
| GMNKLL | inactive |
| GMRFRLMEKFHRLFYYSNMT | inactive |
| GMVNDYVVTVNFPCFWLG | 2.19 ± 0.079 |
| GNNPLVVKNLNRKCL | -0.357 ± 0.51 |
| GNQAYTVTGGSETVCSDNGC | inactive |
| GNRLALVYLGRILPL | inactive |
| GNTVEGKLE | inactive |
| GNVDVAHCDWCKGSTCMLN | 2.64 ± 0.084 |
| GPHNFGEMSGFVDGTRRSGV | inactive |
| GPNLLWDRGGPVNSCASKEA | inactive |
| GQDWIAV | inactive |
| GQKCHLGCAFGCDEYTWAKG | inactive |
| GQSVMQSAMGSISKFE | inactive |
| GQYPEYYWYLGTEFFTVVLF | inactive |
| GRIGTVGWGISLHYVYTDRA | 0.547 ± 0.2 |

| Substance | amyloid nucleation score |
| --- | --- |
| GRIVMHVICNIFNCNYFGNS | 2.94 ± 0.072 |
| GRKKVVTWQLLARQP | inactive |
| GRLALSTRQHLV | inactive |
| GRLLMFASDLLNSPRMCWTE | -0.687 ± 1.8 |
| GRLNVLRRRPVGRTKRCSKV | inactive |
| GRWLV | inactive |
| GRYFSRNYAMCLLLFTTGEV | inactive |
| GRYLSANLVVKSGCR | inactive |
| GSALVLCELGSVAKSLSGNL | inactive |
| GSATSFAFFIVFLSD | 1.51 ± 0.096 |
| GSCKVADAPCSHARR | -0.331 ± 1.3 |
| GSDVFTFRWGNMLRTCTTGR | inactive |
| GSFTASFDGFQGSIMVERGG | inactive |
| GSGLPLTALRSTYVAAPHSE | inactive |
| GSGTGNALLQLGLTSIFTFS | inactive |
| GSICLRQGPSVMVLRMWLCD | inactive |
| GSISLASWVVYSIAIR | inactive |
| GSKDYQPSYIPWYNFACFKG | -0.594 ± 0.96 |
| GSMMLWCFIDSSWDLSLRK | 0.884 ± 0.19 |
| GSRCCNSAFNKECLSITEHS | -0.485 ± 0.8 |
